Laboratory results as given in PMC7478896, “EphrinB2-EphB4 signalling provides Rho-mediated homeostatic control of lymphatic endothelial cell junction integrity” (eLife, 2020).

Target: T1, EphB4 (human (endogenous in HDLEC), UniProt P54760 16-987)
T1 sequence (looked up): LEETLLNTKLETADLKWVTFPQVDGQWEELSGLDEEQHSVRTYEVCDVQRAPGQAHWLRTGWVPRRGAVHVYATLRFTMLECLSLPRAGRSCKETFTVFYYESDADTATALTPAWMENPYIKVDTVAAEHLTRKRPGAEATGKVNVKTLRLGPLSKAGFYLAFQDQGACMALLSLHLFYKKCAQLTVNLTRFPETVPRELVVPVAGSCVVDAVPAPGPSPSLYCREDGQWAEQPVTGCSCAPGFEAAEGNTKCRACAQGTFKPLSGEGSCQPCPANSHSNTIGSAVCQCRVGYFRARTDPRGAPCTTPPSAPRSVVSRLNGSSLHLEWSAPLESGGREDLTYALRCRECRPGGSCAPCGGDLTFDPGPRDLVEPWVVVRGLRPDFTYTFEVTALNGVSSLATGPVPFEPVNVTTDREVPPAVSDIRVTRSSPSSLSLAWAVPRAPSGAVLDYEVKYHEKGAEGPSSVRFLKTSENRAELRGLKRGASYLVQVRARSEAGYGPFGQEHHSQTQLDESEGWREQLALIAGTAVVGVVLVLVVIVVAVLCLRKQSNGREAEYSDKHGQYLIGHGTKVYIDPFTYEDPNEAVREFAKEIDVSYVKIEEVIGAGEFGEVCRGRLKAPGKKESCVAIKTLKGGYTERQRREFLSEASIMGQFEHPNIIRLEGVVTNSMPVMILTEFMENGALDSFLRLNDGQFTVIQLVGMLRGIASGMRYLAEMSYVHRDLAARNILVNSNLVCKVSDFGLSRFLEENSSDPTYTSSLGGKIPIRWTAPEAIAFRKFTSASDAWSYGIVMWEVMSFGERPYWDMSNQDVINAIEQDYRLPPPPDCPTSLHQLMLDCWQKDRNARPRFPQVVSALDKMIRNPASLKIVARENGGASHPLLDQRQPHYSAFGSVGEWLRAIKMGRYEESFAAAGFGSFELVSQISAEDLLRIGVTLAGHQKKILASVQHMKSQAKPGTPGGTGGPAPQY
Assay: cell-based or functional assay

Rac1 activity (Rac1-GTP pull-down) in HDLECs after 30 min stimulation with 0.5 µg/ml clustered EphrinB2-Fc: 2 fold
B1: recombinant human EphrinB2-Fc (Fc fusion, UniProt P52799 28-229, looked up)
chain: IVLEPIYWNSSNSKFLPGQGLVLYPQIGDKLDIICPKVDSKTVGQYEYYKVYMVDKDQADRCTIKKENTPLLNCAKPDQDIKFTIKFQEFSPNLWGLEFQKNKDYYIISTSNGSLEGLDNQEGGVCQTRAMKILMKVGQDASSAGSTRNKDPTRRPELEAGTNGRSSTTSPFVKPNPGSSTDGNSAGHSGNNILGSEVALFA
